From the domain aggregation screens of Martell et al. (2025)

Experiment: soluble fraction after stress (log2 fold change); higher = more stays soluble; pooled small domains, quantitative proteomics
Conditions: stress: 50 degC
In short: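 After stress at 50°C, the amount of each protein still soluble was measured. This was done on pooled custom libraries of small protein domains, using high-throughput quantitative proteomics. The figure given is a base-two log fold change and stands for aggregation propensity, with higher values meaning more protein stays in solution.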

Sequence | soluble fraction (log2)
HMYSIKEFSFEVTTPGQRLDLFLSEELIGQTRSSIQNLILKKYVTVNGQVSKASYKVKTGEFISVKIPV | -3.16
HMDVADITGTRKAAILLLTMDEELSKELLKEFERHEIEAIGKEIANIKYIPENIVKQVHSEFLKNINKS | -0.212
HMKELVEDFASRISNARQSKGWNQSELAKRMAETVNVVKSAESGKSPTDSVIKKLERVLGIILM | -0.591
HMISESLLDEIPGLGETRRNSLLREFGSVAMIRKASAEEIASRVRGIGAEFAAAIHDFLQTH | -0.0611
HMDTITMAGERYAVSDLEKVSGDIFEKAFGFEIDPKTADAKDVLPTMPKSDVDLFKKLSGIKP | 0.19
HMQSRYALLAGMLRARITEGDWVPGSAIPAETVLAKEHGVALGTMRQAIALLVSQGLLERQHGRGTFVRS | -1.16
HMGTGSSAERITMLNSILERQIQAMEIQGNPDAPIVNIQKIYTTLQRIVETAGLKDVDQFFMNPLQGQKEM | -0.253
HMTSFDVMLKSAGANKLAVVKLVKELTGLGLKEAKDIVDAAPSKVKEGVSKEEAEELQKQLTGAGAEVEL | 0.0299
HMETPEIPGLTPRQVEIMLLVGKGYSNKEIARFLTISPETVKTHLKEVFLRFGLRNRVEAIDFTRQNGL | -0.363
HMNSVSIAPEMLNWVIAHIQMNSLPKQIVEHLTAWISGQKEPTFNQIEKVSRATGIPLGYFFLEQPPKE | -2.03
HMEKLIRIKRLIKQLNEYRDSYYNEARPVVSDAAYDKLFDELSELEKETGVVYANSPTQTVG | -0.149
HMENSLLSESLAKIYIKTHRYERAYEILSRLSLAVPEKNAYFADQLRFLRKVMLAESFRKQHS | -0.00623
HMSMEKNWVPSEDVIEILTRAGMNENFIRELIPEFIIYWSERKDVLISYDSKFIEHARLKWAQHNAE | 0.176
HMGVRLAPEVDRIPYGQMHPNLKKVKDLYEASYKAYVQALSSGNQALAKEKLEEFQSTKARYQRALSAYT | 0.189
HMVSQKPKERELWFREQLELAGLRLDPHAISAINETLGNDTGRFPGIIDTLLSTYGAGKKLSYDDVVMFL | -0.477
HMQSKDDLLDTFRVVKGNAALLNDQNKKLIRSLKVSSFGFTGITDQAAEVKKEMPDVLLEKASIEDILF | -0.12
HMETSLVIQIDGAVNSPGIYQVTPGTRIFEALELAGGVREDAQTEALNLALPVYDGQRISIPSSFA | 0.0796
HMNADSLIGENIRISERVSNMDQTGMAVVHGQEWTVRTRNDNEIIEPGEEAKILAISGVKLIVEK | -0.119
HMVISNDEFEDYLNRATEQLVSELSSGKNPRDAVHDLALTFADQHNKSYDAYQRMADSLEARMHTL | 0.0885
HMEEFDLNAYITKINSAATLNALKQAYAEANSAALSVKDKDAQRKIIVEKDKRKAELIQETAG | 0.31
HMETSIQFIRLEIGHNHPWVNQTLKEIPTIPGTLIAAVLRGDEDQAIIPKGDTLLKEGDSVIIGAKEYQD | -0.919
HMSVEYRKTLSDGNEYQIVKEKNGYVIKKSLNEGLDYLEPMKNRKYYSSYSQAFKRLNLIAKEVNINEGYD | -0.138
HMKKSIRIFELMKAKVAAEIFDQMILEGKIEDVFDIIVRLKDSNVSNIMKTMSVENSSRLVQKLERYNKD | -2.18
HMGDAATVFRDHYNINSAAQAQAALDRKEALWEQPNPWRDSDNREVFDWAAQTVKDRFDSGKYKPK | 0.129
HMWSNTAVIDRIRQLHEEGQPISSQSVQVNHKSLYMAAIKRFRGWKRAVEAAGIDYRQIRLR | -1.92

Sequence | soluble fraction (log2)
HMIFEETVFKDIAFGPKNMGLSEAEIKRRVYETAENIGLSQELMERSPFELSGGQKRRVAIAGVMAMEP | 0.192
HMSFGFFELKSSDTDKLFAYLNNNEHFGNIKEENGLVTAFLTSELDAQTLNKLLFDNGIIASHLVKRK | -0.51
HMRPEVTEHLKTADAILHGGDINRQSIVDELRQYAPLYIVRGNNDKDWAEAIPHDLTVTLGGVTFFMVHNR | -0.0555
HMGEIHAQIPGLVSHLFVKEGNTVQVEQKLFILEAMKMENEIDSPIQGTVKRIHIATGSKVEKGDLIMEIS | -0.505
HMNEYIVSAEQEGMRLDVFLTEQMEGSRSYIQSLIKGGHVTVGDKVGKANLRLTPDTVIHVEIPEPE | 0.0524
HMATHWHITPNPNNGKFLISGLMQDDSFHLMDASGQWLRQLRTVNQELDLDLQPGVYFLKDNSGSVMKFVV | -0.98
HMNNLKTKELSKIGYTNDKARSLVISIIPKHFKYHSKSEIIELLTNIKNKPEDYVSDEILGKIAETFMEKI | -0.215
HMTKAEVLLDLQQRIISEEFLPGSWLVERDLSSEYGLSRTPIREILNKLVILGLISVQKNRGYQVR | -1.43
HMESPLNPTDVRRAAMDLLARREHGVEELRLKLKRRFGREEDFETIATEQLQRLVDEDLLSDTRF | -0.165
HMTPTNILIVEDEKEIRRFVRTALESEGLRVFESETLQRGLIEAGTRKPDLIILDLGLPDGDGLSYIRDLR | -0.123
HMQLPFTPREHEITQLLSRGLSNRQIAEALSLSVRTVEGHIYQASTKLGISSRSELAVLVGQFA | -1.89
HMLQIGDEEFIENIVKQVIDENQKAVDDYKKGKEKVMAFLIGQVMKKTKGKVNSEIVEKTIKKL | -0.262
HMATETMGMIIRRLRREHGLTQEELAASIGVTAQAVSKWEKDLGMPDISQIVPLAGAFNVRTDVLFGLE | -0.98
HMNVDALVGMPARVTRAFVQGAGEVKLDNGETWTARLSAGVTDAEASVGQTVSVIAVRGAAVEVAPE | 0.0386
HMKPVYNKVEIPRGGEYALVLSDGTKVHLNSMSSLRFPVAFTTGKREVELQGEAYFEVSKTGQPFIVNV | -0.0523
HMDRSKREKEQQELMLKVQQIFDDNQQRFGAEKIRTVLAQNGVRVSVKRVSAIMQELNLRSIR | -0.871
HMFDNPLSERDKEILNHISMGKSNKEIANQVGLAEQTIKNTISVILDKTFTSNRAQAASMATKNKW | 0.547
HMTLGEHILQYRTARGWSQEDLANALEVSRQSVSKWETDASTPELDKIVRLSEIFQVSIDELVTGKA | 0.108
HMLDSNILTLIKELKIRHHFTATQTHQLEKVIQQAHALGLDNSEIRSLANSSPSAKSLINDLNQKLEPLRL | -0.398
HMEDSAKRHQIMDGARRVFMDLGFDGASMNEIARAAGVSKGTLYVYFTDKNRLFEAIVEQESL | -1.37
HMGQARQSAIRELGNDPTSGKKITVRSGRYGPYVTDGEVNASLRKGDDPQTIDLDRAIELLAARREKLG | 0.13
HMSDLVATKEQVVEAYKYGLGLGLDNSTLKMLLFDIRGEDVADQDKISDGMTVSEIEIWKEGMRTIAEEYL | -0.508
HMVTKTTYAYERLKREIMDGTLGQGEKLVVNAISQRYQVSPMPIREALLKLEQEGLVQSAPHRGAWVHK | -0.345
HMLFQGDTPAENIILEILSKNGTTASDSIIKQSGLSVSDFNQAATMLEIKGLISNNGGNIWSL | 0.0636
HMPSEAVQNIIGNVKSKRRVATIGQARGLASNVIKEGKFDNVSNTAMVNRLIDLGIISNSIGYQ | 0.115

Sequence | soluble fraction (log2)
HMKELLQEMIMDILRAIASPNIDIKRKTLDLVLDLITPRNIDNVTGMLKTEVVKSQSENTSDVG | -0.623
HMAFIEIMTEGDADGRGFQYPIPTYSITRDFDWSETENNKLLFEMTAKYGTPYFSNYINSDMEPSDV | -0.535
HMSAEVSEIEIQRIISYYRNQNGVPDKYNEIFDRIAAQYTDEQLKVISNFLPSDVKQYLSFNNEKYKSLG | -0.295
HMDRVMPVPEALIGMRFDIAVSRMLGVSRSQAAAYIDRGQVSIAGRGSQRSAQKSEKLVQGDSIEVAIA | -0.318
HMITLKKRRQEAILEIIEKYDLSTQDELLQKLKDSGFDATQATVSRDIKELRLVKTMGANGQYKYAVT | -0.403
HMQQTAEDWKNKGDSLTAQSEYVEAIAAYDEAIRLDPNYAPAWSNKGNALKNLGEYYKAIQAYDEAIRL | 0.198
HMDRGDVTREALIKAAIEIFGRDGFHAASTRAIAERAGANQALIGYHFRGKLGLYHATFEYIIGKI | -0.315
HMSQQVVTDGVNLRLRYAPSPDAETYKWADGTNRHPEKGERFPYLGDIGDFYRIDYKGLVLYVSKQHTHL | -1.85
HMNVDALIGTKGIVVQPIRPFAVGQVKVNGQVWSAVGKTPETDIEQGREVKVHAIEGVKLVVTPT | 0.251
HMRNTPQRRHAILALLSEQGEVSVDALAKRFSTSEVTIRKDLAAMESHGLLLRRYGGAVPMPQELI | -0.928
HMRVSNADALIGRRGKANSDIRRGDYGWVAIDGDVWKSKLADDITEDIPMGAIVEVLSRDSIILTVKP | -0.324
HMRIVQTDYRNFLSQVESGAVRSVQIDETQIRYTALDSGGKEIVYNTGKVDDPGLVNRLYDAGVEFSQVIP | 0.0657
HMEYKNYYDSPVGRLELLSDGVSLTAVLFENQQGDGTREENTSLAIFKEATQWLDAYFKGDNPEITIPL | 0.0756
HMLNSISIKTNKKIDFLEKNEHLVNFVYEKETMEHIYNLSYENKKDLQELQNKLSDIEGIIKINTDL | 0.133
HMSEEVKSQPISILDLSTRASNGLKNEGIETIGELVKYSEDELLGLDKFGQNSLKEIKKKLEEIGLTLKEH | -0.0419
HMIKSEERIQNIKEYILEFQFTYHRTPTMAQIAEAVGTVKSNVYKYLSEMEERGILTRNKREIEINDTIQ | -0.819
HMESPELIHILKEAEWQIWQQIQGLPEKQRIAMTLFAMDDLSYQEIADVMKVSVSAIESLLFRARTQLKKY | -0.601
HMHPSNQELTKVLAQGSELVLAQKYIEASQIFTRVIEIDQTWAEAWNKRATVFYLLQNYEASQKDIDEV | 0.0182
HMVLALRGIVQGGAEPLVILSDGRTSQSLAVGERFLAYEVVEIGRTGVRLRGPEGEIWLAMASF | -0.322
HMSNLTDLVSAKEAEVYLHFLESGSTAGMTEAELRAVRKIEELIQSNKIDYNGILRIRNETVK | 0.139
HMDADRILHKTLKPRELEIYQLIKAYLEEHSQIANAKVQEISGLSEATTRRYLNIFVEFGLLKTS | -0.0476
HMFIMQTVALGSEGPDVRALQSILNRIGYNAGTVDGIFGSRTRQAVIAFQRNNGLAADGVAGPATWG | 0.122
HMAVSDAAEEYGKAGTPLVILAGKEYGSGSSRDWAAKGPYLQGVRAVLAESYERIHRSNLVGMGIVPLTYK | 0.0654
HMATPYISMAGIGKSFGPVHALKSVNLTVYPGEIHALLGENGAGKSTLMKVLSGIHEPTKGTITINNIN | 0.384
HMLPGERFKVKIAQAGKEKKQGIGYLNDGTMVVIENGIEKVGEEVEAVVIKVIQSSAGKIIFSEVAK | 0.195
